This passage reports EC50 and IC50 results from patent US20260116960A1 (SHANGHAI HONGCHENG BIOPHARMACEUTICAL, published 2026).

The chains are these.
B1: HC010-F7 (trispecific antibody, human IgG4 S228P, kappa)
heavy: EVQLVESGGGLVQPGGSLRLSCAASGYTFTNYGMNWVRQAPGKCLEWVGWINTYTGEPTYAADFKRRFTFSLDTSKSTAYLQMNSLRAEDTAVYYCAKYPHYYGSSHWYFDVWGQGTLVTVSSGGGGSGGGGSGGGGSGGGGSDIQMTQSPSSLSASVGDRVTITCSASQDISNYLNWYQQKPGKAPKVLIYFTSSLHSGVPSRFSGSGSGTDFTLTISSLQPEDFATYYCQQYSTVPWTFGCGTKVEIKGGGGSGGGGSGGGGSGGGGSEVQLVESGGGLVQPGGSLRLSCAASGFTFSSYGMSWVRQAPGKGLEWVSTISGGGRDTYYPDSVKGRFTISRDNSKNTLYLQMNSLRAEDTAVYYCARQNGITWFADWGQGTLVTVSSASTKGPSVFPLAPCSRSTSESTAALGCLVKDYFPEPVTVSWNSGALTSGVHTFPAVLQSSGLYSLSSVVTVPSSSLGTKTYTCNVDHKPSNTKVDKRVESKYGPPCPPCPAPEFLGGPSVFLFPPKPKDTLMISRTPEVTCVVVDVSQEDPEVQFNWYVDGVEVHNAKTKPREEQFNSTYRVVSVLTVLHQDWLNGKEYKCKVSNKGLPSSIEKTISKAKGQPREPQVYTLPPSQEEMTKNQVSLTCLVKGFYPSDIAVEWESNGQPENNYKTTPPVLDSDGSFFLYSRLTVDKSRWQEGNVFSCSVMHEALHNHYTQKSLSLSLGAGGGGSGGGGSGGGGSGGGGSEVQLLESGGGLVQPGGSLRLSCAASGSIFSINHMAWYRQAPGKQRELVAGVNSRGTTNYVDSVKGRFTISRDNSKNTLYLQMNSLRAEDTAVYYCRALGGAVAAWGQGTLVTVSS
light: DIQMTQSPSSLSASVGDRVTITCRASESVDNYGISFMNWYQQKPGKAPKLLIYAASNQGSGVPSRFSGSGSGTDFTLTISSLQPEDFATYYCQQSKEVPWTFGGGTKVEIKRTVAAPSVFIFPPSDEQLKSGTASVVCLLNNFYPREAKVQWKVDNALQSGNSQESVTEQDSKDSTYSLSSTLTLSKADYEKHKVYACEVTHQGLSSPVTKSFNRGEC
notes: light: CQ1-3/1-11 VL-kappa; also called H010-F7
B2: HC010-F13 (trispecific antibody, human IgG4 S228P, kappa)
heavy 1: EVQLVESGGGLVQPGGSLRLSCAASGFTFSSYGMSWVRQAPGKGLEWVSTISGGGRDTYYPDSVKGRFTISRDNSKNTLYLQMNSLRAEDTAVYYCARQNGITWFADWGQGTLVTVSSASTKGPSVFPLAPCSRSTSESTAALGCLVKDYFPEPVTVSWNSGALTSGVHTFPAVLQSSGLYSLSSVVTVPSSSLGTKTYTCNVDHKPSNTKVDKRVESKYGPPCPPCPAPEFLGGPSVFLFPPKPKDTLMISRTPEVTCVVVDVSQEDPEVQFNWYVDGVEVHNAKTKPREEQFNSTYRVVSVLTVLHQDWLNGKEYKCKVSNKGLPSSIEKTISKAKGQPREPQVYTLPPCQEEMTKNQVSLWCLVKGFYPSDIAVEWESNGQPENNYKTTPPVLDSDGSFFLYSRLTVDKSRWQEGNVFSCSVMHEALHNHYTQKSLSLSLGAGGGGSGGGGSGGGGSGGGGSEVQLVESGGGLVQPGGSLRLSCAASGYTFTNYGMNWVRQAPGKCLEWVGWINTYTGEPTYAADFKRRFTFSLDTSKSTAYLQMNSLRAEDTAVYYCAKYPHYYGSSHWYFDVWGQGTLVTVSSGGGGSGGGGSGGGGSGGGGSDIQMTQSPSSLSASVGDRVTITCSASQDISNYLNWYQQKPGKAPKVLIYFTSSLHSGVPSRFSGSGSGTDFTLTISSLQPEDFATYYCQQYSTVPWTFGCGTKVEIK
heavy 2: EVQLLESGGGLVQPGGSLRLSCAASGSIFSINHMAWYRQAPGKQRELVAGVNSRGTTNYVDSVKGRFTISRDNSKNTLYLQMNSLRAEDTAVYYCRALGGAVAAWGQGTLVTVSSGGGGSGGGGSGGGGSGGGGSESKYGPPCPPCPAPEFLGGPSVFLFPPKPKDTLMISRTPEVTCVVVDVSQEDPEVQFNWYVDGVEVHNAKTKPREEQFNSTYRVVSVLTVLHQDWLNGKEYKCKVSNKGLPSSIEKTISKAKGQPREPQVCTLPPSQEEMTKNQVSLSCAVKGFYPSDIAVEWESNGQPENNYKTTPPVLDSDGSFFLVSRLTVDKSRWQEGNVFSCSVMHEALHNRFTQKSLSLSLGAGGGGSGGGGSGGGGSGGGGSEVQLVESGGGLVQPGGSLRLSCAASGYTFTNYGMNWVRQAPGKCLEWVGWINTYTGEPTYAADFKRRFTFSLDTSKSTAYLQMNSLRAEDTAVYYCAKYPHYYGSSHWYFDVWGQGTLVTVSSGGGGSGGGGSGGGGSGGGGSDIQMTQSPSSLSASVGDRVTITCSASQDISNYLNWYQQKPGKAPKVLIYFTSSLHSGVPSRFSGSGSGTDFTLTISSLQPEDFATYYCQQYSTVPWTFGCGTKVEIK
light: B1 light
notes: Knob-into-hole heterodimer; light: CQ1-3/1-11 VL-kappa; One site each for PD-1 and CTLA-4; also called H010-F13
B3: HC010-F11 (trispecific antibody, human IgG4 S228P, kappa)
heavy: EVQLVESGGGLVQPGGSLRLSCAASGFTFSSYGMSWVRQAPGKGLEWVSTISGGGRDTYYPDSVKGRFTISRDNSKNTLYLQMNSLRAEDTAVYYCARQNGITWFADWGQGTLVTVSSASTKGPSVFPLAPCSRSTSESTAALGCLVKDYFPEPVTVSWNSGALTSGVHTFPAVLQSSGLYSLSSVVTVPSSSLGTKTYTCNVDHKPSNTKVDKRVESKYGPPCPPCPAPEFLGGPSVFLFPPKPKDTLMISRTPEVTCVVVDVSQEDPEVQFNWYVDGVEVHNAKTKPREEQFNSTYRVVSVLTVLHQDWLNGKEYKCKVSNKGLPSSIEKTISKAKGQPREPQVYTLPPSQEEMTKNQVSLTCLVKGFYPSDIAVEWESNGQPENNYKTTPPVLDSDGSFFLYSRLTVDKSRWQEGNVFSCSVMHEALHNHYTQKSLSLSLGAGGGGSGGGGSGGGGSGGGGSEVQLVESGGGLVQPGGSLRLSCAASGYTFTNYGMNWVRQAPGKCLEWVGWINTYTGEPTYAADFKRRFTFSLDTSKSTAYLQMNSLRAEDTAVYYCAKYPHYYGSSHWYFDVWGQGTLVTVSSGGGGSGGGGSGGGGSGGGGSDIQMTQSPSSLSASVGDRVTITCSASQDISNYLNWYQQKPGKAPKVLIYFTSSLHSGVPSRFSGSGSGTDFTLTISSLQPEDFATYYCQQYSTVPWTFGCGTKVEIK
light: DIQMTQSPSSLSASVGDRVTITCRASESVDNYGISFMNWYQQKPGKAPKLLIYAASNQGSGVPSRFSGSGSGTDFTLTISSLQPEDFATYYCQQSKEVPWTFGGGTKVEIKRTVAAPSVFIFPPSDEQLKSGTASVVCLLNNFYPREAKVQWKVDNALQSGNSQESVTEQDSKDSTYSLSSTLTLSKADYEKHKVYACEVTHQGLSSPVTKSFNRGECGGGGSGGGGSGGGGSGGGGSEVQLLESGGGLVQPGGSLRLSCAASGSIFSINHMAWYRQAPGKQRELVAGVNSRGTTNYVDSVKGRFTISRDNSKNTLYLQMNSLRAEDTAVYYCRALGGAVAAWGQGTLVTVSS
notes: light: CQ1-3/1-11 VL-kappa - (G4S)4 - 202F1 VHH; also called H010-F11
B4: HC010-F15 (trispecific antibody, human IgG4 S228P, kappa)
heavy 1: QVQLVESGGGVVQPGRSLRLSCAASGFTFSSYTMHWVRQAPGKGLEWVTFISYDGNNKYYADSVKGRFTISRDNSKNTLYLQMNSLRAEDTAIYYCARTGWLGPFDYWGQGTLVTVSSASTKGPSVFPLAPCSRSTSESTAALGCLVKDYFPEPVTVSWNSGALTSGVHTFPAVLQSSGLYSLSSVVTVPSSSLGTKTYTCNVDHKPSNTKVDKRVESKYGPPCPPCPAPEFLGGPSVFLFPPKPKDTLMISRTPEVTCVVVDVSQEDPEVQFNWYVDGVEVHNAKTKPREEQFNSTYRVVSVLTVLHQDWLNGKEYKCKVSNKGLPSSIEKTISKAKGQPREPQVYTLPPCQEEMTKNQVSLWCLVKGFYPSDIAVEWESNGQPENNYKTTPPVLDSDGSFFLYSRLTVDKSRWQEGNVFSCSVMHEALHNHYTQKSLSLSLGAGGGGSGGGGSGGGGSGGGGSEVQLVESGGGLVQPGGSLRLSCAASGYTFTNYGMNWVRQAPGKCLEWVGWINTYTGEPTYAADFKRRFTFSLDTSKSTAYLQMNSLRAEDTAVYYCAKYPHYYGSSHWYFDVWGQGTLVTVSSGGGGSGGGGSGGGGSGGGGSDIQMTQSPSSLSASVGDRVTITCSASQDISNYLNWYQQKPGKAPKVLIYFTSSLHSGVPSRFSGSGSGTDFTLTISSLQPEDFATYYCQQYSTVPWTFGCGTKVEIK
heavy 2: EVQLVESGGGLVQPGGSLRLSCAASGFTFSSYGMSWVRQAPGKCLEWVSTISGGGRDTYYPDSVKGRFTISRDNSKNTLYLQMNSLRAEDTAVYYCARQNGITWFADWGQGTLVTVSSGGGGSGGGGSGGGGSGGGGSDIQMTQSPSSLSASVGDRVTITCRASESVDNYGISFMNWYQQKPGKAPKLLIYAASNQGSGVPSRFSGSGSGTDFTLTISSLQPEDFATYYCQQSKEVPWTFGCGTKVEIKGGGGSGGGGSGGGGSGGGGSESKYGPPCPPCPAPEFLGGPSVFLFPPKPKDTLMISRTPEVTCVVVDVSQEDPEVQFNWYVDGVEVHNAKTKPREEQFNSTYRVVSVLTVLHQDWLNGKEYKCKVSNKGLPSSIEKTISKAKGQPREPQVCTLPPSQEEMTKNQVSLSCAVKGFYPSDIAVEWESNGQPENNYKTTPPVLDSDGSFFLVSRLTVDKSRWQEGNVFSCSVMHEALHNRFTQKSLSLSLGAGGGGSGGGGSGGGGSGGGGSEVQLVESGGGLVQPGGSLRLSCAASGYTFTNYGMNWVRQAPGKCLEWVGWINTYTGEPTYAADFKRRFTFSLDTSKSTAYLQMNSLRAEDTAVYYCAKYPHYYGSSHWYFDVWGQGTLVTVSSGGGGSGGGGSGGGGSGGGGSDIQMTQSPSSLSASVGDRVTITCSASQDISNYLNWYQQKPGKAPKVLIYFTSSLHSGVPSRFSGSGSGTDFTLTISSLQPEDFATYYCQQYSTVPWTFGCGTKVEIK
light: not shown
notes: Knob-into-hole heterodimer; light: ipilimumab VL-kappa; also called H010-F15

T1 sequence (P15692 other isoform, or with tags, fused parts or gaps limits assumed): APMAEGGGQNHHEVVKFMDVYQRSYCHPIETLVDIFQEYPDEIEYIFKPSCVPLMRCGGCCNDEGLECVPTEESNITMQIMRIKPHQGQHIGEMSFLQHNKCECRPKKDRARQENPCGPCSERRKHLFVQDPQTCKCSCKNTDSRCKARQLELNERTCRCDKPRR
Sequence of human PD-1 protein (Acro, PD1-H5257) (Q15116 25-167 limits assumed): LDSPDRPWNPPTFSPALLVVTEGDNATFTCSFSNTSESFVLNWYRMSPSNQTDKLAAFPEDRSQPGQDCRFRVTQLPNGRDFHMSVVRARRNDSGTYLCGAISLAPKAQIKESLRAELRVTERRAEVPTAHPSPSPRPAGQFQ

The first assay concerns the target T1, human VEGF165-his protein (Acro, Catalog No. VE5-H5248) (human, UniProt P15692-4 27-191).
T1 construct: Bought protein; also called hVEGF165-His; VEGFA; not shown: his tag
The experiment in a line: ELISA, plate coated with human VEGF165-his. As to the method:
(§1) ELISA was used to determine the activity of the trispecific antibodies binding to the PD-1 protein: 1 μg/mL human PD-1 protein (Acro, Catalog No.: PD1-H5221) was used to coat a high-adsorption 96-well ELISA plate and incubated at 4° C. overnight. On the next day, the plate was washed three times with PBST solution and blocked with 1% BSA-PBS solution at 37° C. for 1 hour. At the same time, 3-fold gradient dilutions of the antibody were prepared with 1% BSA-PBS solution, with a starting concentration of 10 nM. The antibodies of each gradient concentration were added to the blocked 96-well ELISA plate at 100 µL/well in triplicate and incubated at 37° C. for 1 hour. The plate was then washed three times with 0.05% PBST solution, and 100 μL/well of HRP-labeled secondary antibody (Sigma, Catalog No.: A0170) diluted at 1:5000 was added to the ELISA plate and incubated at 37° C. for 1 hour. The plate was washed three times with 0.05% PBST solution and developed with TMB. The absorbance of the 96-well ELISA plate at 450 nm was detected by an ELISA reader. The OD₄₅₀ value was fitted using a four-parameter model to calculate the EC₅₀ value of each antibody binding to PD-1.
The binding activity of the trispecific antibodies to VEGFA protein was detected by ELISA method as described in Section 2.1. The used human VEGF165-his protein was purchased from Acro, Catalog No.: VE5-H5248.
In the case of B1, the EC50 was determined as 0.081 nM.
Still for that read-out and setting: to B2 belongs 0.098 nM; to B3, 0.125 nM; to B4, 0.087 nM.

The target of another assay is T2, human PD-1 protein (Acro, Catalog No. PD1-H5221) (human, UniProt Q15116 25-167).
T2 construct: Bought protein; also called human PD1-his; not shown: his tag
T2 sequence (Q15116 25-167 limits assumed): as above
The experiment in a line: ELISA, plate coated with human PD-1 protein. On the procedure:
as §1
B1 had a half-maximal effective concentration (EC50) of 0.085 nM.
B2 had an EC50 of 0.307 nM.
Still for that read-out and setting: then B3, with 0.114 nM; and B4, with 0.712 nM.

For another assay, the target named is T3, human CTLA-4 protein (Acro, Catalog No. CT4-H52H9) (human, UniProt P16410 36-161).
T3 construct: Bought protein
T3 sequence (P16410 36-161 limits assumed): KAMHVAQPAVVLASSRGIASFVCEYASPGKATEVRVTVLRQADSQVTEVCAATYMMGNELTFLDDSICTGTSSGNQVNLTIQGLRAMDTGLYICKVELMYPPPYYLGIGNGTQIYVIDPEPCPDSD
The experiment in a line: ELISA, plate coated with human CTLA-4 protein.
B1: a half-maximal effect (EC50) was put at 0.059 nM.
Molecule B2 displayed a 50% effective concentration (EC50) of 0.438 nM.
On the same count and under the same terms, to B3 belongs 0.044 nM.

The next assay concerns the target human PD-1 protein (Acro, PD1-H5257) (human, UniProt Q15116 25-167). The experiment in a line: competitive ELISA, PD-1 coated, biotin-PD-L1 as labelled ligand. On the procedure: The next day, the plate was washed three times with PBS solution and blocked with 1% BSA-PBS solution at 37° C. for 1 hour. […] 100 μL of the antibody-protein mixture was added to each well of the blocked 96-well ELISA plate and incubated at 37° C. for 1 hour. After washing four times with PBST, 100 μL of Strep-HRP (BD, Catalog No. 554066) diluted 1:5000 was added to each well of the ELISA plate and incubated at 37° C. for 1 hour. After washing 4 times with PBST, TMB was used for color development. The absorbance at 450 nm and 630 nm was detected by a microplate reader, and OD450-OD630 was calculated. The fluorescence intensity was fitted using a four-parameter model, and the IC₅₀ value of the blocking activity of each antibody was calculated.
Molecule B1 came in with a concentration for half-maximal inhibition (IC50) of 0.433 nM.
Still for that read-out and setting: to B2 belongs 1.63 nM; to B3, 0.83 nM; to B4, 2.22 nM.

The target of a further assay is T4, human PD-1 on the cell surface (human, UniProt Q15116 25-288).
T4 construct: whole, on cells; also called cell surface PD-1
T4 sequence (Q15116 25-288): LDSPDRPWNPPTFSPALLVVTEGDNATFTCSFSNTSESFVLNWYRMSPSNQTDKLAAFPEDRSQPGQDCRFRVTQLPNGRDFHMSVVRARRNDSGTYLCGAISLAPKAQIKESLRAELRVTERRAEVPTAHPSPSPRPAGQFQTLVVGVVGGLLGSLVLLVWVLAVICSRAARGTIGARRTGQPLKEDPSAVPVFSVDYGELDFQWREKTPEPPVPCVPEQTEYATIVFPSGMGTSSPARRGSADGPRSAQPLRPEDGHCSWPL
The experiment in a line: flow cytometry competition, 293T-hPD-1 cells, biotin-human PD-L1. As to the method:
50 μL of antibody solution serially diluted 3-fold in FACS buffer was added in triplicate, with a starting concentration of 200 nM. After mixing, incubated at 4° C. for 60 minutes. After washing three times with FACS buffer, 100 μL/well of 1:800 diluted PE Streptavidin was added and incubated at 4° C. for 50 min. After washing three times with FACS buffer, 150 μL/well of PBS was added to resuspend the cells, and the fluorescence signal was detected on a flow cytometer (BECKMAN COULTER cytoFLEX). The four-parameter model was used to fit the binding activity and the IC₅₀ value of the blocking activity of each antibody was calculated.
Take B1: the IC50 was 3.7 nM.
Still for that read-out and setting: then B2, with 69.9 nM; and B3, with 5.58 nM; and B4, with 326 nM.

In the next assay the target is T5, human CTLA-4 on the cell surface (human, UniProt P16410 36-223).
T5 construct: whole, on cells; also called CHO-hCTLA-4 cells; CHOK1-hCTLA4 cells
T5 sequence (P16410 36-223): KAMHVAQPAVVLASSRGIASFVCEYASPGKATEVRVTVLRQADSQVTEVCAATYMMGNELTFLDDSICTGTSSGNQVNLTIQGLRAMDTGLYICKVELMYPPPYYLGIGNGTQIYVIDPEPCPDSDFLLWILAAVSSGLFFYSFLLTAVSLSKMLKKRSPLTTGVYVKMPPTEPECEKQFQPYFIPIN
The experiment in a line: flow cytometry competition, 293T-hPD-1-hCTLA-4 cells (PD-1 co-expressed), biotin-human CD80. On the procedure:
PD-1 and CTLA-4 are co-expressed on functionally exhausted T cells in the tumor microenvironment, and the expression level of PD-1 is higher than that of CTLA-4. […] 200 μL of the cells were added to a 96-well U-bottom plate, approximately 1.4×10⁵ cells/well. After centrifugation at 300 g for 5 minutes, the supernatant was discarded. […] After washing three times with FACS buffer, 100 μL/well of 1:800 diluted PE Streptavidin was added and incubated at 4° C. for 50 min. After washing three times with FACS buffer, 150 μL/well of PBS was added to resuspend the cells, and the fluorescence signal was detected on a flow cytometer (BECKMAN COULTER cytoFLEX). The binding activity was fitted using a four-parameter model, and the IC₅₀ value of the blocking activity of each antibody was calculated.
On to B1, for which the concentration for half-maximal inhibition (IC50) turned out to be 0.055 nM.
Molecule B2 displayed an IC50 of 0.066 nM.
With B3, the half-inhibitory concentration (IC50) was 0.076 nM.
